This note sets out measurements from patent US20260217813A1 (published 2026).

Sequences and labels used below:
T1: IL-12 (Human IL12 (His Tag)), Sino Biological Cat. No. CT-050-H08H-20 (human, UniProt P29460 23-328; P29459 23-219)
T1 construct: Bought His-tagged p35/p40 heterodimer
T1 sequence (looked up) 1: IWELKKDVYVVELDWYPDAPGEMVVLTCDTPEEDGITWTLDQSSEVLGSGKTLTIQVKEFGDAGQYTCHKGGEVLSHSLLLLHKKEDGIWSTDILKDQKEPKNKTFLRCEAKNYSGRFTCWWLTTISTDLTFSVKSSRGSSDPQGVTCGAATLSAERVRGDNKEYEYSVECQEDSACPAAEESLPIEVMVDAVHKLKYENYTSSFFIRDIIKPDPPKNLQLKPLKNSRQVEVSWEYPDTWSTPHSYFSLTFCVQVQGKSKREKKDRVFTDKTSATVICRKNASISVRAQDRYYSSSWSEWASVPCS
T1 sequence (looked up) 2: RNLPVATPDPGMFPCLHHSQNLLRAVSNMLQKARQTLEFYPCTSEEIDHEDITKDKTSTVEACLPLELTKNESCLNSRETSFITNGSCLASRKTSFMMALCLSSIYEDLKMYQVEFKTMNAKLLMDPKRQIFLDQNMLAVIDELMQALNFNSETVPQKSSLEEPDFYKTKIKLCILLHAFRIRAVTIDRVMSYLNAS

B1: H5L10 (antibody, human IgG1, kappa, V domains shown)
VH: EVQLVQSGAEVKKPGESLKISCQSSGYSFTTYWIGWVRQMPGQGLEWIGIMSPVDSDIRYNPMFRGQVTMSVDKSSSTAYLQWSSLKASDTAMYYCARRRPGQGYFDFWGQGTMVTVSS
VL: EIVLTQSPATLSASPGERATISCRASQSVGSWLAWYQQKPGQAPRSLIYAASNLQSGIPARFSGSGSGTDFTLTISSLEPEDFAVYYCQQYNIYPYTFGQGTRLEIKR
notes: IgG1/kappa
B2: H5L12 (antibody, human IgG1, kappa, V domains shown)
VH: EVQLVQSGAEVKKPGESLKISCQSSGYSFTTYWIGWVRQMPGQGLEWIGIMSPVDSDIRYNPMFRGQVTMSVDKSSSTAYLQWSSLKASDTAMYYCARRRPGQGYFDFWGQGTMVTVSS
VL: EIVLTQSPATLSASPGERATISCRASQSVSSWLAWYQQKPGQAPRSLIYAASNRQSGIPARFSGSGSGTDFTLTISSLEPEDFAVYYCQQYNIYPYTFGQGTRLEIKR
notes: IgG1/kappa
B3: H5L11 (antibody, human IgG1, kappa, V domains shown)
VH: EVQLVQSGAEVKKPGESLKISCQSSGYSFTTYWIGWVRQMPGQGLEWIGIMSPVDSDIRYNPMFRGQVTMSVDKSSSTAYLQWSSLKASDTAMYYCARRRPGQGYFDFWGQGTMVTVSS
VL: EIVLTQSPATLSASPGERATISCRASQSVSSWLAWYQQKPGQAPRSLIYSASNLQSGIPARFSGSGSGTDFTLTISSLEPEDFAVYYCQQYNIYPYTFGQGTRLEIKR
notes: IgG1/kappa
B4: H5L14 (antibody, human IgG1, kappa, V domains shown)
VH: EVQLVQSGAEVKKPGESLKISCQSSGYSFTTYWIGWVRQMPGQGLEWIGIMSPVDSDIRYNPMFRGQVTMSVDKSSSTAYLQWSSLKASDTAMYYCARRRPGQGYFDFWGQGTMVTVSS
VL: EIVLTQSPATLSASPGERATISCRASQSVSSWLAWYQQKPGQAPRSLIYAASNLQSGIPARFSGSGSGTDFTLTISSLEPEDFAVYYCQQYNIYPFTFGQGTRLEIKR
notes: IgG1/kappa
B5: ustekinumab (trade name Stelara) (antibody, V domains shown)
VH: EVQLVQSGAEVKKPGESLKISCKGSGYSFTTYWLGWVRQMPGKGLDWIGIMSPVDSDIRYSPSFQGQVTMSVDKSITTAYLQWNSLKASDTAMYYCARRRPGQGYFDFWGQGTLVTVSS
VL: DIQMTQSPSSLSASVGDRVTITCRASQGISSWLAWYQQKPEKAPKSLIYAASSLQSGVPSRFSGSGSGTDFTLTISSLQPEDFATYYCQQYNIYPYTFGQGTKLEIK

The target of one test is T1, IL-12 (Human IL12 (His Tag)), Sino …. As to the kind of experiment: FACS competition, IL-12-His 20 nM on 293T-IL-12RB1&IL-23R cells. How it is done:
200 μL of 1% PBSA was added into each sample, and the mixture was centrifuged at 700×g for 5 min to discard the supernatant. According to experiment design, correspondingly diluted antibody (highest final concentration of 30 μg/mL, 3-fold dilution, 8 concentrations in total) and human IL-12 (Sino Biological, Cat. No.: CT-050-H08H-20) (final concentration of 20 nM) were mixed at a ratio of 1:1, and a blank control was set. The mixture of antibody and human IL12 was incubated on ice for 30 min and then added to the cell precipitate at 100 μL/sample. The resulting mixture was well mixed and incubated on ice for 60 min. 200 μL of 1% PBSA was added, and the mixture was centrifuged at 700×g for 5 min to discard the supernatant, and then washed twice. Alexa Fluor® 488 anti-His tag antibody (Biolegend, Cat. No.: 652509) was diluted at a ratio of 1:400 and added to each tube at 100 μL. The mixture was well mixed and incubated on ice for 40 min in the absence of light. 200 μL of 1% PBSA was added, and the mixture was centrifuged at 700×g for 5 min to discard the supernatant, and then washed twice. 1% PBSA was added at 200 μL/tube, and the cells were resuspended and transferred to a flow cytometry tube for testing.
B1: the response was half-maximal at 0.331 µg/mL (EC50).

B2: the EC50 (usually the concentration giving half of the maximal effect) amounted to 0.317 µg/mL.

In turn, B3 had a 50% effective concentration (EC50) of 0.414 µg/mL.

As to B4, a half-maximal response (EC50) required 0.532 µg/mL. The EC50 values of the last two molecules are within 1.5-fold of each other.

B5 gave a half-maximal effective concentration (EC50) of 0.377 µg/mL. The EC50 values of the last two molecules are within 1.5-fold of each other.

A further test has the same target. As to the kind of experiment: FACS competition, IL12-His (40 nM mixed 1:1) on 293T-IL-12RB1&IL-23R cells. How it is done:
200 μL of 1% PBSA was added into each sample, and the mixture was centrifuged at 1200 rpm for 5 min to discard the supernatant. According to experiment design, correspondingly diluted antibody (highest final concentration of 60 μg/mL, 3-fold dilution, 8 concentrations in total) and IL12-His (Sino Biological, Cat. No.: CT-050-H08H-20) (40 nM) were mixed at a ratio of 1:1, and a blank control was set. The mixture of antibody and IL12 was incubated on ice for 30 min and then added to the cell precipitate at 100 μL/sample. The resulting mixture was well mixed and incubated on ice for 60 min. 200 μL of 1% PBSA was added, and the mixture was centrifuged at 1200 rpm for 5 min to discard the supernatant, and then washed twice. THETM His tag antibody (FITC) (Genscript, Cat. No.: A01620) was diluted at a ratio of 1:500 and added to each tube at 100 μL. The mixture was well mixed and incubated on ice for 40 min in the absence of light. 200 μL of 1% PBSA was added, and the mixture was centrifuged at 1200 rpm for 5 min to discard the supernatant, and then washed twice. 1% PBSA was added at 200 μL/tube, and the cells were resuspended and transferred to a flow cytometry tube for testing.
B5 showed an EC50 of 1.58 µg/mL.
